In patent US7122374:

Legend:
Assay in all cases: ELISA, peptide coated at 1 µg/mL, mAb4G8 diluted 1000 times, HRP anti-mouse Igs
AβN3pE-42 = target: AβN3pE-42
Aβ1-40 = target: Aβ1-40
AβN3E-42 = target: AβN3E-42
Sequence of AβN3E-42 (peptide, as listed by the source): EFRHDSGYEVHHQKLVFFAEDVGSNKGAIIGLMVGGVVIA

Sequence of Aβ1-40 (peptide, as listed by the source): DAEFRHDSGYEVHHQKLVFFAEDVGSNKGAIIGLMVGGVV

An absorbance at 450 nm (AβN3pE-42) of 2.27 A450, an absorbance at 450 nm (Aβ1-40) of 1.57 A450 and an absorbance at 450 nm (AβN3E-42) of 1.39 A450 were found for “monoclonal antibody mAb4G8 (SENETEC Inc)” in this work.
